Common to all, as to assay type: biochemical
The nature of data set [1]: pH and temperature stability of amidase 2 at 70° C. Particulars: between pH 6 and 9; pre-incubated 30 min; stability decreased with the decrease in pH. As to the method:
The reaction mixture contained 5 μl amidase 2 mixture (155 μg protein/ml), 45 μl 67 mM phosphate buffer at either pH3, 4, 5, 6, 7, 8 or 9. The reaction mixes were incubated at 70° C. for 30 min, before 2 μl 0.5 mg/ml OTA in ethanol and 80 μl 0.2M Mops pH 7.0 were added and the samples incubated at 30° C. for 60 min. The reaction was stopped by adding 130 μl acetonitrile containing 0.2% HAC, filtered and analysed by RP-HPLC.
Further more the recombinant amidase 2 was quite stable at 70° C. between pH 6 and 9. The stability decreased with the decrease in pH (FIG. 13). Activity was assayed at pH 7.0 and 30° C. The pre-incubation mixture contained 5 μl amidase 2 mixture (155 μg protein/ml), 45 μl 67 mM phosphate buffer (pH3, 4, 5, 6, 7, 8 and 9). The samples were pre-incubated at 70° C. for 30 min. After cooling to 30° C., 2 μl 0.5 mg/ml OTA in ethanol and 80 μl 0.2M Mops-NaOH (pH 7.0) were added and the reaction incubated at 30° C. for 60 min. The reaction was stopped by adding 130 μl acetonitrile containing 0.2% HAC, filtered and injected on RP-HPLC with an injection of 5 μl to monitor the remaining OTA.

The nature of data set [2]: pH optimum of amidase 2 in degrading OTA. Particulars: 30° C., 60 min; followed by pH 6 and 8; pH 5 and 9. As to the method: The reaction mixture contained 5 μl amidase 2 mixture (a mixture of the intracellular fractions of transformant 3, 4, 7-8, 10-11 and 13-15) with a protein concentration of 155 μg protein/ml), 0.1 ml 67 mM phosphate buffer (pH3, 4, 5, 6, 7, 8 and 9), 25 μl OTA (1 μg/ml). The reaction was performed at 30° C. for 60 min and stopped by the addition of 0.13 ml acetonitrile containing 0.2% HAC. An injection volume of 10 μl was used for RP-HPLC analysis of remaining OTA after filtering.
Five microliters of enzyme solution were combined with […] OTA 1 μg/mL diluted in different buffers: 50 mM sodium acetate buffer (pH 4, 4.5, 5 and 5.5); 50 mM MES-NaOH buffer (pH 6, 6.5 and 7); 50 mM Tris-HCl buffer (pH 7.5, 8 and 8.5).

Data set [3] is described as follows: heat stability of amidase 2 at 80° C. The settings on record: 5-30 min pre-incubation at 80° C., pH7.0. As to the method: The pre-incubation mixture in a 1.5 ml ependorpf tube contained 5 μl of the amidase 2 mixture (155 μg protein/ml), and 45 μl 67 mM phosphate buffer pH7.0. The samples were pre-incubated at 80° C. for 0, 5, 10, 15, 20, 25 and 30 min. After cooling to 15° C., 50 μl 67 mM phosphate buffer and 25 μl OTA (1 μg/ml) were added to start the reaction this was incubated at 30° C. for 60 min, the reaction was stopped by the addition of 130 μl acetonitrile containing 0.2% HAC. An injection volume of 10 μl was used for RP-HPLC analysis of remaining OTA after filtering.
The reaction mixture of 5 μl enzyme plus 45 μl 68 mM sodium phosphate (pH7.0) was incubated at 80° C. for 0-30 min before adding another 50 μl the phosphate buffer and 25 μl 1 μg/ml OTA, and incubated at 30° C. for 60 min. The reaction was stopped by adding 130 μl acetonitrile containing 0.2% acetic acid (v/v). The reaction mixture was filtered and injected (10 μl) for HPLC analysis. Ctrl was control where no amidase was added.

Data set [4] is described as follows: degradation of OTA in DDGS by amidase 2 sig. Particulars: DDGS slurry pH 6.7; 800 ppb at start; 3.1 μg protein; 37° C., 22 hr. As to the method:
For DDGS, 1 g was suspended in 10 ml water, pH adjusted to 6.7 with NaOH. To 210 μl of this slurry was added 8 μl OTA (25 μg/ml) and 20 μl amidase 2 sig (3.1 μg protein), mixed and incubated at 37° C. for 22 hr. The OTA concentration decreased from 800 ppb at start to 5 ppb at the end. OTA analysis by HPLC was described in the materials and methods section above.

Data set [5] is described as follows: degradation of OTA in corn flour by amidase 2 sig. Particulars: 800 ppb at the start, 3.1 μg protein, 37° C., 22 hr. The procedure:
For corn flour, 50 mg corn flour was added 210 μl water, 8 μl OTA (25 μg/ml) and 20 μl amidase 2 sig (3.1 μg protein), mixed and incubated at 37° C. for 22 hr. The OTA concentration decreased from 800 ppb at the start to 14 ppb at the end. OTA analysis by HPLC is described in the materials and methods section above.

Data set [6] can be described thus: sensitivity of OTA hydrolysis to CaCl2 and EDTA. As to the method:
One protease inhibitor cocktail (PIC) tablet (Roche Applied Science, Mannhein, Germany) was dissolved in 1.5 mL. milliQ water to obtain a 7× stock solution. For formamidase inhibition assay, instead of 100 μL milliQ water normally employed, 20 μL of 7×PIC stock solution and 80 μL of milliQ water were mixed with other components listed in formamidase activity assay section. For OTA degrading activity, 35 μL 7×PIC solution were mixed with 210 μL OTA 1 μg/mL and 5 μL enzyme solution. […] For controls, inhibitor solution is replaced either by milliQ water for formamidase activity assay or MES-NaOH pH7 buffer for OTA degrading activity.
Also it is known that the OTA degrading activity in the Amano™ lipase product is sensitive to EDTA.
[…] The reaction was performed at 37° C. for 30 min and stopped by adding 150 μl acetonitrile containing 0.2% acetic acid. OTA and its product OT-alpha (=ODα) were analyzed on RP-HPLC on C18 column with an injection of 5 μl. Positive control (PC) contained no additives other than the buffer the amidase and OTA. Blank contained only buffer and OTA.

B1: recombinant amidase 2: amidase 2 from transgenic A. niger intracellular preparation, a mixture of intracellular fractions of transformants 3, 4, 7-8, 10-11 and 13-15 (protein)
chain: MVRRIASATPMVQSPMSPLGTTYCVRPNPVSLNLQRRPLVIASTDEAKVTIIYAGLLIPGDGEPLRNAALVISDKIIAFVGSEADIPKKYLRSTQSTHRVPVLMPGLWDCHMHFGGDDDYYNDYTSGLATHPASSGARLARGCWEALQNGYTSYRDLAGYGCEVAKAINDGTIVGPNVYSSGAALSQTAGHGDIFALPAGEVLGSYGVMNPRPGYWGAGPLCIADGVEEVRRAVRLQIRRGAKVIKVMASGGVMSRDDNPNFAQFSPEELKVIVEEAARQNRIVSAHVHGKAGIMAAIKAGCKSLEHVSYADEEVWELMKEKGILYVATRSVIEIFLASNGEGLVKESWAKLQALADSHLKAYQGAIKAGVTIALGTDTAPGGPTALELQFAVERGGMTPLEAIKAATANAPLSVGPQAPLTGQLREGYEADVIALEENPLEDIKVFQEPKAVTHVWKGGKLFKGPGIGPWGEDARNPFL
modifications: Aspergillus niger
Consider B1, for which, in data set [1], the “stability at 70° C.” value is given as “quite stable”. Further, the “pH of highest enzyme activity” value in data set [2] amounted to 7.0 pH. Further, the “activity remained after pre-incubation” value in data set [3] was “more than 80%”.

B2: amidase 2 sig: full length 480 amino acid A. niger amidase 2 with N-terminal or signal sequence, MW about 51 kDa; intracellular fraction (protein)
chain: MVRRIASATPMVQSPMSPLGTTYCVRPNPVSLNLQRRPLVIASTDEAKVTIIYAGLLIPGDGEPLRNAALVISDKIIAFVGSEADIPKKYLRSTQSTHRVPVLMPGLWDCHMHFGGDDDYYNDYTSGLATHPASSGARLARGCWEALQNGYTSYRDLAGYGCEVAKAINDGTIVGPNVYSSGAALSQTAGHGDIFALPAGEVLGSYGVMNPRPGYWGAGPLCIADGVEEVRRAVRLQIRRGAKVIKVMASGGVMSRDDNPNFAQFSPEELKVIVEEAARQNRIVSAHVHGKAGIMAAIKAGCKSLEHVSYADEEVWELMKEKGILYVATRSVIEIFLASNGEGLVKESWAKLQALADSHLKAYQGAIKAGVTIALGTDTAPGGPTALELQFAVERGGMTPLEAIKAATANAPLSVGPQAPLTGQLREGYEADVIALEENPLEDIKVFQEPKAVTHVWKGGKLFKGPGIGPWGEDARNPFL
modifications: Aspergillus niger
notes: intracellular fraction
Regarding B2, the “OTA concentration at the end” value in data set [4] worked out at 5 ppb; in data set [5] it was 14 ppb. Besides, the “inhibition by CaCl2” value is given as “not appreciably inhibited” in data set [6] (8 mM CaCl2, intracellular fraction of transgenic A. niger) and “no inhibition” in data set [6] (20 mM CaCl2, 37° C., 30 min, pH7.0). Also, the “inhibition by EDTA” value in data set [6] (20 mM EDTA, 37° C., 30 min, pH7.0) was “no inhibition”.

Source of the values: US9113649B2, “Food additive comprising an amidase for detoxifying ochratoxin” (DuPont Nutrition Biosciences ApS, priority 2010, dated 2015).
